The target in one series is PSMA dimer (Homo sapiens, UniProt Q04609). In words: Phage-based ELISA, binding to PSMA dimer. On the procedure:
In a phage-based ELISA, specific wells of a 96-well microtiter plate (Nunc Maxisorp) were coated with 100 μL/well of a solution of PSMA (5.56 or 11.1 nM) monomer or dimer protein diluted in PBS. The plate was incubated for 1 h on a shaker at room temperature. The coating solution was removed, and the wells were blocked with 320 μL/well of 0.2% w/v solution of BSA in PBS for 30 min, and washed three times with 300 μL/well of wash buffer PT (0.05% TWEEN-20 in PBS). […] The wells on the ELISA plate were then incubated with the phage samples (100 μL/well) for 1 h. The wells were washed five times with PT and then incubated with horseradish-peroxidase-conjugated anti-M13 antibody (100 μL/well, 1:5000 dilution in PBT) for 30 min. The wells were washed three times with PT, and two times with PBS. […] Following an appropriate incubation time, HRP activity was measured spectrophotometrically at 450 nm using a microtiter plate reader (Bio-Tek).
Phage-based wrapping ELISA: Phage (5 nM in 225 μL) and 2 μL of the purified cycloaddition reaction product, KCS-1/2 (308.7 μM) in water: acetonitrile (60:40), were mixed and serially diluted in PBT. […] Levels of phage binding were quantified as described above.
Background: ELISA stands for enzyme-linked immunosorbent assay.

Another series has as its target PSMA (Homo sapiens, UniProt Q04609). In words: Electrochemical impedance biosensing with virus-PEDOT films. Type of series: binding. The following applies: PBF-TWEEN. On the procedure: Biosensing with Virus-PEDOT Films. To explore whether these wrapped virus particles could be exploited to create virus-electrode biosensors with a higher sensitivity for PSMA, films of PEDOT were prepared on gold electrodes by electropolymerization in the presence of phage-2 (FIG. 28). […] SEM imaging confirms incorporation of phage into the bioaffinity matrix; both filament-like and less extended features having dimensions consistent with phage integrated as rope-like bundles into the polymer at various angles to the film (FIGS. 4B-4C) were observed. The KCS-1 wrapper was then applied in vitro simply by exposing the resultant phage-2 film for a short time to an aqueous solution of the wrapper. For the biosensing measurements, only the highest affinity ligand combination of phage-2 wrapped with KCS-1 was used, and it was studied in comparison to phage-2 films.
EIS To Quantify PSMA Binding. […] The real component of the impedance, R, in particular, increases upon PSMA binding. […] The films incorporating phage-2 wrapped with KCS-1 provide higher sensitivity for PSMA detection than films incorporating unwrapped phage-2 (FIG. 4F). For example, the relative impedance change, ΔR/Ro, at each concentration of PSMA is 3-fold higher. […]

The next series in a line: Solubility in water. Type of series: physicochemical. The following applies: previous studies.

Ends that are not written are not given here.

Sequence of PSMA dimer (Q04609 44-750 limits assumed): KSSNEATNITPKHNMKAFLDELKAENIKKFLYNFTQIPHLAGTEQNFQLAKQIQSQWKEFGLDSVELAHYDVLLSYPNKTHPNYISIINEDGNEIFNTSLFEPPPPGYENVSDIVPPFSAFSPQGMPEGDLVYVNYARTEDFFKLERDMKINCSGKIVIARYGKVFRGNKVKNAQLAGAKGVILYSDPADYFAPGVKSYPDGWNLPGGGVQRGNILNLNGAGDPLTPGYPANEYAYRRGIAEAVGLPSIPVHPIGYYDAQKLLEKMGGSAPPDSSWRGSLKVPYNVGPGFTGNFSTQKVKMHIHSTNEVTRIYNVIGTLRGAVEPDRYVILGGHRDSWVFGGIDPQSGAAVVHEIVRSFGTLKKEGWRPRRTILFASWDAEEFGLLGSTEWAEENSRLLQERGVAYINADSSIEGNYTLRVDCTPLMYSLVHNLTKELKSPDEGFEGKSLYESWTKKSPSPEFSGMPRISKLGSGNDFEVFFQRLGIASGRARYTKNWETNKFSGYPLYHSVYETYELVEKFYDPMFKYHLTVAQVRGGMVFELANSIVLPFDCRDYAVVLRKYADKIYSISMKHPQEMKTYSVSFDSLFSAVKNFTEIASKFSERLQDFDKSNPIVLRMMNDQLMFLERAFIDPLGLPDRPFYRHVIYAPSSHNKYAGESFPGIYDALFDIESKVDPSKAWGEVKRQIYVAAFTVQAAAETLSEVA
Sequence of PSMA (Q04609 44-750): as the sequence (Q04609 44-750 limits assumed) above

For “KCS-1: chemically synthesized wrapper: K14 oligolysine click-linked to PSMA ligand 1 (peptide 1 KKKKKKKKKKKKKK; peptide 2 KKKCALCEFLG; cysteine pairing not given here; also: K14 oligolysine click-linked to PSMA ligand 1)”, the “increase in apparent affinity to PSMA versus other wrapper concentrations” value in the series with PSMA dimer (2.7 μM KCS-1, FIG. 7) is on record as approximately 15%. The “binding to PSMA by PEDOT film (negative controls)” value in the series with PSMA is reported as “no significant binding to PSMA”.

Take “peptide 1: PSMA-binding peptide ligand, amino acid sequence CALCEFLG (SEQ ID NO: 1)”: in the series with PSMA dimer (phage-based ELISA), the “relative binding affinity to PSMA dimer” value is on record as “much lower apparent affinity for PSMA than peptide 2”. Besides, in “Solubility in water”, the solubility in water result is “limited solubility in water”.

(Values after patent publication US11168306B2, “Phage wrapping” (priority 2014, dated 2021).)
